Experimental data as given in publication PMC3222871.

Molecular target: T1, human POT1 (human, UniProt Q9NUX5 1-634)
T1 sequence: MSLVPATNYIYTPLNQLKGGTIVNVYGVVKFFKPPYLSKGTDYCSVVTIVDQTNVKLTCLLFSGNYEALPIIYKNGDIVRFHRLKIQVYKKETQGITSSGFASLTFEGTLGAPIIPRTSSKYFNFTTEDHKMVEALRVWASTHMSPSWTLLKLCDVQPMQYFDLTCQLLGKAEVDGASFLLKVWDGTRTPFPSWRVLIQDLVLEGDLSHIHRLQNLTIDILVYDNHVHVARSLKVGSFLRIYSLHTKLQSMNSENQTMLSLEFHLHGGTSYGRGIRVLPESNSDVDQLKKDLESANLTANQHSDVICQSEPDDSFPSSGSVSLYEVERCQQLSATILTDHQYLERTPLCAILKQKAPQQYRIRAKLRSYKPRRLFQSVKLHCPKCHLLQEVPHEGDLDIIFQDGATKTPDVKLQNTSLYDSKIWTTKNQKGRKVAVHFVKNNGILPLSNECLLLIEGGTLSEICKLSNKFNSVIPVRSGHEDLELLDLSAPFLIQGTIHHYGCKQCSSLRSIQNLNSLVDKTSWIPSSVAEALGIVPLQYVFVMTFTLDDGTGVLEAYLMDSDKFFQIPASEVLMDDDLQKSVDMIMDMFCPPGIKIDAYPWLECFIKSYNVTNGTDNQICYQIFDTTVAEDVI
Test: EMSA

**Q.** Does TTTTTTTTTTTTTTTTTTTTTTTTTTTTTTTTTT (ssDNA) [dT34] bind?
**A.** Result: no binding
